Measured values published in the supplement of paper PMC10567573.

B1: ZER1 (parent)
chain: FDGPEAWGVCEPQREEVEERMWAA

Variants of: B1
Experiment: protein stability index of a GFP-peptide fusion (GPS, HEK-293T) (PSI 1-6); higher = more stable
Details: c terminus: a fixed tail appended
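Also: lentivirally expressed fusions sorted by FACS into six bins by GFP to DsRed ratio, PSI derived from sequencing read proportions per bin multiplied by bin number.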

Protein stability index of substitutions, site by site:
P12: C 2.33 | V 2.47 | H 3.17 | F 2.93 | L 2.47 | K 2.9 | E 3.17 | T 3.17 | S 3.14 | W 3.81 | D 2.88 | G 2.69 | M 3.3 | Q 3.22 | R 3.53 | Y 2.64 | I 2.31
W7: T 4.69 | S 4.92 | V 4.98 | N 4.58 | Q 5.22 | P 4.52 | M 3.64 | Y 3.98 | R 3.97
E11: P 2.64 | F 1.89 | S 2.73 | A 1.87 | C 2.15 | T 2.58 | K 2.12 | N 1.83 | Q 1.9 | D 2.67 | W 1.81 | V 1.96 | H 2.55 | M 3.24 | I 3.01 | R 1.93 | Y 1.87 | L 1.85
Q13: M 2.46 | K 2.91 | N 2.94 | Y 2.39 | V 3.23 | D 2.92 | S 2.71 | F 2.31 | E 2.86 | G 2.75 | H 2.44 | R 2.21 | T 2.43 | W 2.17 | L 2.68 | A 2.72 | I 2.76
E15: R 2.79 | K 2.92 | Y 2.32 | D 2.43 | N 2.31 | H 1.79 | S 2.13 | W 1.52 | Q 2.5 | G 2.19 | C 3.02 | L 2.2 | T 2.62 | M 2.34 | P 1.46 | V 2.63 | I 2.02 | F 1.56 | A 2.45
R14: W 2.52 | T 2.54 | V 2.16 | N 2.86 | D 2.88 | Y 2.46 | E 3.16 | G 3.36 | L 1.8 | P 3.26 | A 2.18 | F 2.74 | I 2.97 | H 2.31 | S 2.56 | Q 2.09 | M 3.08 | C 2.25
C10: T 3.3 | K 3.48 | R 2.6 | A 3.02 | N 3.26 | S 2.66 | F 3.21 | W 2.6 | M 3.13 | L 3.15 | D 4.42 | I 2.86 | Y 2.86 | V 2.55 | P 3.64 | H 3.64 | G 4.03 | E 3.93 | Q 3.26
E16: T 2.72 | F 2.62 | M 1.99 | G 2.04 | H 2.66 | P 2.04 | R 2.16 | C 2.24 | S 2.25 | K 1.98 | A 2.33 | D 2.14 | N 2.37 | L 1.62 | I 2.34
G8: Q 2.74 | N 2.62 | F 1.55 | P 4.17 | V 1.6 | L 3.64 | K 2.25 | C 2.33 | D 3.75 | Y 3.39 | I 2.25 | M 1.79 | S 1.95 | R 2.42 | E 4.19 | A 1.96 | H 2.33
V9: K 2.59 | P 3.08 | A 3.21 | Q 3.05 | T 3.15 | R 2.5 | N 3.35 | M 2.63 | G 3.25 | E 4.03 | W 3.22 | Y 2.48 | S 4.12 | I 2.09 | F 2.94 | D 4.92 | H 3.18 | C 2.03
